For 57 substances, amyloid nucleation score results are on record in the supplement of paper PMC12042874.

± gives the uncertainty stated by the source.

The nature of the data set: amyloid nucleation score (Sup35N fusion, yeast selection) (log enrichment); library NNK1; higher = more nucleation; inactive = no reads after selection. In a few lines:
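The nucleation score, computed with DiMSum, is the log enrichment of output over input reads, centred on the mode score of non-aggregating sequences. Sequences with under 100 input reads were dropped. Reads were generated by Illumina sequencing of plasmid inserts from psi-negative yeast with Sup35N fused to peptides of 20 random codons, induced with 100 μM copper sulfate for 24 hours and grown 7 days at 30°C on medium lacking adenine and uracil.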
Regarding TYHFIYEWISLTIT, the amyloid nucleation score result was “inactive”.
The figure for TYIFVIPHLVRSTDWTLFAE is 0.017 ± 0.33.
The figure for TYILVFSVIYPSLKYECFCQ is 1.6 ± 0.61.
To TYIYSTILEVFYLSLGHVII belongs 0.775 ± 0.35; to TYMFGHMGADMKGRRSWWCE, 0.354 ± 0.44; to TYRNS, -0.891 ± 1.2.
In turn, TYRVVFVAGIHQFNFVPLVR came in with an amyloid nucleation score of 0.009 ± 1.1.
For the substance TYSWEDCTYGITPSGTYRSN, the amyloid nucleation score stood at 1.33 ± 0.38.
For TYYNLYSVRGGCFAHDVLAC, the amyloid nucleation score turned out to be 0.234 ± 0.31.
The figure for VAADMEARYIFCYIINVDAR is 4.98 ± 0.083; for VAFRLTIGCVVSVSINVAGV it is 1.19 ± 0.62; for VAFWFVLGWKGSLYYKGLAD it is 0.334 ± 1.1.
To VALLTNWFTGPQPLTMFTRV belongs 1.14 ± 0.9.
To VALWYFCCVVAYYGGARLVS belongs 2.06 ± 0.33; to VAMILYGFTFWILRCNEWCR, 0.377 ± 0.24; to VAMRIWLVNACLGG, 0.092 ± 0.63.
In the case of VASFRMG, the amyloid nucleation score came to 1.37 ± 0.14.
To VASRTLLCSLGRKRVVVCGC belongs -0.667 ± 0.29; to VAWPRGPVKARGIYISGRIC, “inactive”; to VCAEWGAVAPGIGKEYQQRM, 2.04 ± 0.32.
Regarding VCGRGKGDD, the amyloid nucleation score was -0.107 ± 0.27.
The figure for VCKITDLAARCHSREFWESR is 0.253 ± 0.25; for VCKVRRL it is 0.461 ± 0.63; for VCLVDSSWGW it is 3.86 ± 0.085.
The figure for VCMRTAGCFSDTYGVHGFKI is 1.21 ± 0.24; for VCMTTLCWISSGVGFLHWSS it is 3.98 ± 0.068; for VCRTPSLRHHTFDVYFWSDV it is -0.105 ± 1.4.
For the substance VCYCLKWEAMSVKLLCMGCA, the amyloid nucleation score was -0.688 ± 0.6.
VDGRDKSFQSFYCKK displayed an amyloid nucleation score of 0.236 ± 0.56.
To VDISVAYRC belongs -1.59 ± 1.3.
The substance VDKNMFI had an amyloid nucleation score of -0.021 ± 1.2.
The figure for VDNFIYLVNYLHTRNFISRH is -0.287 ± 0.35; for VDSFRGHIESFPSLRTFIVS it is “inactive”; for VDTLLARIIRLRHQFSNTAV it is 0.16 ± 0.29.
VDVANGLADVYLLQ had an amyloid nucleation score of -0.009 ± 0.57.
On to VDVCCDGYRYLW, for which the amyloid nucleation score was -0.754 ± 0.39.
The substance VDVQGICRHISFNIAGA gave an amyloid nucleation score of -0.035 ± 0.72.
The figure for VEKRKTFRLGAFGEVRVICS is 0.461 ± 0.99; for VELSRASNLCQDNIREHMQV it is -0.32 ± 0.31; for VEVCRTNWLVEL it is 1.09 ± 0.57.
Regarding VEYVQYFWSSGGVYGSDTGW, the amyloid nucleation score stood at 0.024 ± 0.76.
With VFAVLRLPPKMTARSMGASP, the amyloid nucleation score stood at 0.661 ± 0.61.
The figure for VFCVSRTINGYN is -0.374 ± 0.48; for VFGDT it is 0.149 ± 0.97.
Regarding VFLLVPWPVSFGGRIHACEW, the amyloid nucleation score amounted to 0.286 ± 0.47.
The figure for VFLYFIVLNANHCFIMPEHF is 3.42 ± 0.089; for VFNLMI it is 0.381 ± 0.28; for VFQVTWGWSCMREVELSSGT it is 0.343 ± 0.67.
For VFSDQQDHQHGWTYETSLSA, the amyloid nucleation score was 0.619 ± 0.7.
To VFSMC belongs “inactive”; to VFSNLELTFDRGCFPVRCLR, -0.482 ± 0.35.
On to VFTACVCGRVEDISDCVPAL, for which the amyloid nucleation score is -0.071 ± 0.76.
To VFWGDKMSLLDLSVTNIMSI belongs 1.49 ± 0.4.
The figure for VFWSV is -0.096 ± 0.5.
To VFYDNSARSVCNPNYGWTFS belongs 0.181 ± 0.48.
Take VGCADEMVPMEFMCWLGIIF: the amyloid nucleation score is -0.909 ± 2.7.
For the substance VGCFLIKSGEQ, the amyloid nucleation score was -0.385 ± 0.36.
